Positions count from the first letter of the chain named.
How the values were obtained:
[1] = target: T1, His-tagged monkey TROP2 protein (cynomolgus monkey; Rhesus …, UniProt A0A5F8AGB8 27-274); assay: SPR Biacore 8K, Ab on Protein A chip
T1 construct: also called cTROP2-His; ACRO Biosystems Cat# TR2-R52H3
T1 sequence: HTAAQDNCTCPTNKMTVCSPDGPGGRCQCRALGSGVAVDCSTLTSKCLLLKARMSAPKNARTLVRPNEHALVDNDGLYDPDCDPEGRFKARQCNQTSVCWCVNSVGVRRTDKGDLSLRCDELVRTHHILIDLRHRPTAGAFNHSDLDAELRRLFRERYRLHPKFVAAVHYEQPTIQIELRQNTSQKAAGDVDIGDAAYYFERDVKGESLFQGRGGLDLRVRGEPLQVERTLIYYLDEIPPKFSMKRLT

[2] = target: T2, His-tagged dog PTK7 protein (dog, UniProt Q13308 31-703 (human entry)); assay: SPR Biacore 8K, Ab on Protein A chip
T2 construct: also called dPTK7-His
T2 chain: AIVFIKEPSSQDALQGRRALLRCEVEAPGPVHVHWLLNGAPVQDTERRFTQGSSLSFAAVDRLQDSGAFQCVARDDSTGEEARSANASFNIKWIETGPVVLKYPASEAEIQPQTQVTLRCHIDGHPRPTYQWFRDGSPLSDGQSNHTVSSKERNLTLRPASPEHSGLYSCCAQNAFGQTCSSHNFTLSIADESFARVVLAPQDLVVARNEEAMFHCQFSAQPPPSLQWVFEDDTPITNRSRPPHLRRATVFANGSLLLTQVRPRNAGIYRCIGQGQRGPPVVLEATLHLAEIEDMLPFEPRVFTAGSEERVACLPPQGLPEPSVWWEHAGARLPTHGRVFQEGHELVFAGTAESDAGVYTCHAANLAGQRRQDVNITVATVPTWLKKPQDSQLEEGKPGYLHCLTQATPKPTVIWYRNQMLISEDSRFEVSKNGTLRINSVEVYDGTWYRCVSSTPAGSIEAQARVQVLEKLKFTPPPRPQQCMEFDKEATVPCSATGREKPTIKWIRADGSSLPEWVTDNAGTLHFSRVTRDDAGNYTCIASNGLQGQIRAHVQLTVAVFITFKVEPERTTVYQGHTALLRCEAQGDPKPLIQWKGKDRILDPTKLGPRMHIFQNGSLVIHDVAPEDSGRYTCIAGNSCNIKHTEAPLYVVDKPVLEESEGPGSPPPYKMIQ
Description: (§1) The affinity of the anti-PTK7/TROP2 bispecific antibodies to His-tagged human TROP2 protein (hTROP2-His, ACRO Biosystems Inc., Cat #: TR2-H5223), His-tagged […] monkey TROP2 protein (cTROP2-His, ACRO Biosystems Inc., Cat #: Cat: TR2-R52H3), His-tagged dog TROP2 protein (dTROP2-His, ACRO Biosystems Inc., Cat #: TR2-C52H4), hPTK7-His, cPTK7-His and dPTK7-His were measured by surface plasmon resonance (SPR) using Biacore™ (Biacore, INC, Piscataway N.J.) 8K biosensor equipped with pre-immobilized Protein A sensor chips.

[3] = target: T3, His-tagged human TROP2 protein (human, UniProt P09758 27-274); assay: SPR Biacore 8K, Ab on Protein A chip
T3 construct: Bought protein; also called hTROP2-His; ACRO Biosystems Cat# TR2-H5223; not shown: His tag
T3 sequence (looked up): T1 sequence with V36M, N67S, V204I
Description: as §1

[4] = target: T4, TROP2 on NCI-H1975 and NUGC-4 tumor cells (UniProt P09758 27-323, limits assumed); assay: flow cytometry on NUGC-4 cells (only TROP2 expression), anti-hIgG-Fc Alexa Fluor 647 secondary antibody, MFI [B]
T4 construct: whole, on cells; species of the lines is not worded there; also called TROP2 on cells
T4 sequence (looked up): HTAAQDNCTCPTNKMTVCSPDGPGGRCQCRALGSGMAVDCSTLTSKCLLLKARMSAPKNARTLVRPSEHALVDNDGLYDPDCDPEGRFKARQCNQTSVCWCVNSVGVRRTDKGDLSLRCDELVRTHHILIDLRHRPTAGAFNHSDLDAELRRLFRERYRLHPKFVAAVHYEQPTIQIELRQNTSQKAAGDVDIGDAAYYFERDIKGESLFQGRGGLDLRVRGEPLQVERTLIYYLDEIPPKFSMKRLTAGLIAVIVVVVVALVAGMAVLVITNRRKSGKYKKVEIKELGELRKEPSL
Description: This experiment was performed to test the binding activities of the anti-PTK7/TROP2 bispecific antibodies to different tumor cell lines. NCI-H1975 cells or NUGC-4 cells were transferred to a 96-well plate at a density of 5×10⁴ cells/well respectively. The sample antibody was added to the 96-well plate, and incubated at 4° C. for 30 min.

B1: 3C4-18E9 (bispecific antibody, human IgG1, V domains shown)
VH 1: QVQLEQSRAEVKKPGESLRISCKGSGYSFTSYWISWVRQMPGKGLEWMGRIDPSDSYTNYNPSFQGHVTISADKSISTAYLQWSSLKASDTAMYYCARRDGSYFDFDYWGQGTLVTVSS
VH 2: QLQLQQSGPGLLKPSETLSLTCTVSGGSISSSYYFWGWIRQPPGKGLEWIGAIYYIGNTHYNPSLKSRVTISIDTSKNQFSLNLNSVTAADTAIYYCARYEDTWNWFDPWGQGTLVTVSS
VL: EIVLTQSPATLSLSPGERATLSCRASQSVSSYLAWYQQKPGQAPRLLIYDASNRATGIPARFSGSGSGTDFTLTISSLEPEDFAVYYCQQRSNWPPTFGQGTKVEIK
notes: which arm carries the knob is stated only for 3C4-6F7; also called anti-PTK7/TROP2 bispecific antibody 3C4-18E9
Kd [1]: 3.16 nM | koff [1]: 0.00104 s⁻¹ | kon [1]: 329000 M⁻¹ s⁻¹ | Kd [2]: 38.9 nM | koff [2]: 0.00449 s⁻¹ | kon [2]: 115000 M⁻¹ s⁻¹ | Kd [3]: 3.03 nM | koff [3]: 0.00107 s⁻¹ | kon [3]: 353000 M⁻¹ s⁻¹ | EC50 (read off the curve) [4]: ~0.6 µg/mL

— patent US20260250421A1 (BIOCYTOGEN PHARMACEUTICALS BEIJING, published 2026)
